From US20080206230A1 (INSTITUT PASTEUR, published 2008)

Biological target: T1, rat NEP ecto-endopeptidase (renal tissue) (rat, UniProt P07861 2-750)
T1 sequence (looked up): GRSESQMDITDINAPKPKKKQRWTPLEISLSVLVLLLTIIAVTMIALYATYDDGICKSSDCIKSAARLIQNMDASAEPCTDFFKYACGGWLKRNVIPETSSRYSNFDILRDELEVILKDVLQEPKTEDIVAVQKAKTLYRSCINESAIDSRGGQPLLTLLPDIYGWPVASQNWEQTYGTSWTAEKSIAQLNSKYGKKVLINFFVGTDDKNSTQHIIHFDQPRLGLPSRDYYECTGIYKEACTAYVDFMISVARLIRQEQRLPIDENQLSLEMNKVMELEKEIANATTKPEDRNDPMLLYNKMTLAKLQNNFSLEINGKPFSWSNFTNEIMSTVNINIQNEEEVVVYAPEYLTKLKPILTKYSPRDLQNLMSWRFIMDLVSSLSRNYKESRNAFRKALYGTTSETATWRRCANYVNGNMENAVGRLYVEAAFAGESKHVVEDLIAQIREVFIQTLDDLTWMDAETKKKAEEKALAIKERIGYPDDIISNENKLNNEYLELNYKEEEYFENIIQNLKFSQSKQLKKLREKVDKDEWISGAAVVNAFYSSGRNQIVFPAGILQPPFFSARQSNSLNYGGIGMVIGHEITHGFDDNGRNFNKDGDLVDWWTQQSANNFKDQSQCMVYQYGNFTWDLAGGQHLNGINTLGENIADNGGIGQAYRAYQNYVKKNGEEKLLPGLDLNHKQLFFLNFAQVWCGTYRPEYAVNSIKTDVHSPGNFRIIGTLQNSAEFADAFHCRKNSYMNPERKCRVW
Test: cell-based or functional assay

B1: QRFSR peptide (peptide)
peptide: QRFSR
- inhibitory efficiency towards rat renal NEP relative to human cell surface NEP (LNCaP): ≥ 10 fold lower
